Laboratory results reported in article PMC3772059.

Test system: TTF-IΔN348
Assay: MST
Details: 5 mM MgCl2; Hill coefficient 1; MST: 50 nM DNA, 5 nM-2.4 uM protein, 80 mM Tris-HCl pH 7.6, 80 mM KCl, 0.2 mM EDTA, 5 mM MgCl2, 10% glycerol, 0.05% IGEPAL CA-630, 10 min at 30 C; EMSA and …

T2 Sal-box 30-mer oligonucleotide
Kd: 500 nM
